Laboratory results published in the DeepSol protein solubility set.

assay: soluble on expression in E. coli; label from the status in PepcDB or PDB records

**Q.** With “MSLCAPNTGRFLLTGTPLPMLSYRHSFHAGNHADVLKHTVQSLIIESLKEKDKPFLYLDTHAGAGRYQLGSEHAERTGEYLEGIARIWQQDDLPAELEAYINVVKHFNRSGQLRYYPGSPLIARQLLREQDSLQLTELHPSDYPLLRSEFQKDSRARVEKADGFQQLKAKLPPVSRRGLILIDPPYEMKTDYQAVVSGIAEGYKRFATGTYALWYPVVLRQQIKRMIHDLEATGIRKILQIELAVLPDSDRRGMTASGMIVINPPWKLEQQMNNVLPWLHSKLVPAGTGHATVSWIVPEEGHHHHHH” as the sequence, how does the “soluble on expression in E. coli” value read?
**A.** soluble

**Q.** With “MGHHHHHHSHSMKEENLCQAFSDALLCKIEDIDNEDWENPQLCSDYVKDIYQYLRQLEVLQSINPHFLDGRDINGRMRAILVDWLVQVHSKFRLLQETLYMCVGIMDRFLQVQPVSRKKLQLVGITALLLASKYEEMFSPNIEDFVYITDNAYTSSQIREMETLILKELKFELGRPLPLHFLRRASKAGEVDVEQHTLAKYLMELTLIDYDMVHYHPSKVAAAASCLSQKVLGQGKWNLKQQYYTGYTENEVLEVMQHMAKNVVKVNENLTKFIAIKNKYASSKLLKISMIPQLNSKAVKDLASPLIGRS” as the sequence, how does the “soluble on expression in E. coli” value read?
**A.** not soluble

**Q.** With “MAHHHHHHMSGGDIWVRRAPIGHPREMTVSTSVNNGPGPQGRHLFAELPINAGGGEVVLGECGTSGPSRSCNAMFSFKPPRHEPLWQPTRLTSPYCVLSANGVQDDFYTSCLSWGKGNIALALRDEVLLFQPSRPLVRLAVLNVQERPRSIISRVTSVAVSRFSDSSCFMGELDGSVGVYASRGDGRLSQTSVFSKPPPPLENTPLAGEAAMTATASVRCLATTDVHPWLVAAGTAAQGLFIFDSRCEKPSAQMVECDTFIALDSKRARKPLSPEDCLSLLSSAEGICGVSWNASGSLVATGGSGGVVNIWSLSQTRAPVQQIKLPNAHTTVKAIAFNPTLPYELAVGGGTNDGMLRLYDVSSSVSYLAWCVSTGCQVTQALYSPDGAFIISAQGLRHDKFTADGRAHSTALRMPNSNGAGVDVHRDSMDALERLTEEFERGMTRNGRTQEELQEPAPSHSGTAMNWAGDTPRTDDSPAFSLVMWRRGTQHRHSVPLGFSNTKPRDRPRSQYIQETERTPLPLFSMYMMTGHRSRPLHLASPFSSTADRGSVASFAGGVDNTIRFWKCFCPRSEAVNWEHRTRASMRAAVTEEDVEGMMAMPLR” as the sequence, how does the “soluble on expression in E. coli” value read?
**A.** not soluble

**Q.** Which “soluble on expression in E. coli” value does the source give for “MNMDVNAVKNSTRGKHWFNLLTQGFNLIASGIDSLLIAEGQLGENKISVFCVVPDSHNHFPRARQGEVGLLEGWSLAQAIDQIIESDQNLTHKRGILCIVDVPSQAYGRREELLGIHQALAAAADSYVRARLAGHPVVSLLVGKSMSGAFLAHGYQANRILALKDQGVMVHAMGKESAARVTLRTVDELENLAANIPPMAYDIESYNSLGLLSGLLNVSHADHPTTSDIDYIQQTLSQTFQEIRNQGTSDLKHRLSAKNREASVHVRELLREQWS” here?
**A.** not soluble

**Q.** With “SMSAPAGEPPAPVRLRKNVCYVVLAVFLSEQDEVLLIQEAKRECRGSWYLPAGRMEPGETIVEALQREVKEEAGLHCEPETLLSVEERGPSWVRFVFLARPTGGILKTSKEADAESLQAAWYPRTSLPTPLRAHDILHLVELAAQYRQQARHPLIL” as the sequence, how does the “soluble on expression in E. coli” value read?
**A.** soluble

**Q.** For “MSYVTTKDGVQIFYKDWGPRDAPVIHFHHGWPLSADDWDAQLLFFLAHGYRVVAHDRRGHGRSSQVWDGHDMDHYADDVAAVVAHLGIQGAVHVGHSTGGGEVVRYMARHPEDKVAKAVLIAAVPPLMVQTPGNPGGLPKSVFDGFQAQVASNRAQFYRDVPAGPFYGYNRPGVEASEGIIGNWWRQGMIGSAKAHYDGIVAFSQTDFTEDLKGIQQPVLVMHGDDDQIVPYENSGVLSAKLLPNGALKTYKGYPHGMPTTHADVINADLLAFIRS”, which “soluble on expression in E. coli” value is on record?
**A.** soluble

**Q.** For “MAGATDQRRQEVLRAIVADYIASQEPVGSKALLERHNLKVSSATIRNDMAVLESEGYIVQQHASSGRIPTEKAYRTFVDSINDIKPLSVAERRAILGFLERGVDLEDVLKRSVQLLSQLTRQAAVIQLPNLNVSRVKHCEVVLLSPVRLLLVLITDNGRVEQRNVEVDQICEPEHVAKMRDVLNRALDNKTLSDASASLAELAAGEILVDPDIQPMILRCATVLIETLVEQPNDRLILAGASNLTHIAREMPSSLPAMLEALEEQVVVLKLLTNVRDLGHVSVLIGEENEDEQLRGTSVVTTGYGAQGATLGGLGVVGPTFMDYSGTMSKVYAVAHYVSRVLSGG”, which “soluble on expression in E. coli” value is on record?
**A.** not soluble

**Q.** With “MGSDKIHHHHHHMPTLDPLSLRLFVSVAEAGTIAAAAEREHIAAAAVSKRISEIEATLGVALLRRTNKGVAPTAAGERLVVLAHRALHELDDIAVQMRDYASGVSGLIRLAANVSSVVQFLPREIQAFAAQHPRIQIQLEEKASAGVVKAVADNAVDIGIFTSVPHGYEVQTFPYHRDFLTLVVPGGHTLAQKQAVAFADTLDFEYVGLPPDTAISQQLTRAAHAHARPVNLRIQVTSYDAQCLMIAAGLGLGVMPHAVAQQQAANLGLATVALTDAWAERELLIAVRSLEALPVACRMLVAHLRGA” as the sequence, how does the “soluble on expression in E. coli” value read?
**A.** not soluble

**Q.** With “GPLGSNEEANRFANQAKLRVQEAVFYIWSDKTLKYSQMANDEAESFRNTWLLFRSFQQWITLTQTFKEQSRLADQAFLNKMFRKILKAQEHWKH” as the sequence, how does the “soluble on expression in E. coli” value read?
**A.** soluble

**Q.** With “MEEWDVPQMKKEVESLKYQLAFKREMSSKTIPELLKWIEDGIPKDPFLNPDLMKNNPWVEKAKCTIL” as the sequence, how does the “soluble on expression in E. coli” value read?
**A.** not soluble

**Q.** With “AIAFRHTLSVDPSEQLSQDFADPVTDSGYESDEEAAAAATASLSGEEAALWNLVDPQQRLIFVLDGPAAQTLRVKRTGNLERQVVNIHRLPLERAPTVATSLLAATRPQHLVVALRTIEPHQAAAILTSTSYPSLSNVENASQVLVLANDLVQIDDPLLRPLWSDEGTQQNRIQLRWVETGCIGGITAALLAAGCWLRIPVLALLAVEDDDGPSPATLEALLLAAERFGCFTRADWEIRMPNLRQLLAKRQLLYI” as the sequence, how does the “soluble on expression in E. coli” value read?
**A.** soluble

**Q.** Which “soluble on expression in E. coli” value does the source give for “MSLNTGGNLLCVQLTVRRGPVREAKKPTPRIRNDGRYKIMQIGDLHLSTGVGACREAVPDSYNGGKCEADPRTLDFVNRVLDDEKPDLVVLSGDQVNGDTAPDAPTAMFKIVSLLIERKIPYAAIFGNHDDEKTMSREAQMAIMESLPFSLSTAGPADIDGVGNYYVEVLARGKTDHSALTIYLMDTHAYTPDERNFPGYDWVKPNQIEWFKKTAAGLKKNHNEYTGRHMDIAFIHIPLTEYADPALPRVGEWKEGVTAPVYNSGFRDALVEQGIVMVSAGHDHCNDYCSLSLAGEGETKIPALWMCYAGGSGFGGYAGYGGYHRRVRLFEVDTNEARIKTWKRLESGDTASRIDLQIIVDGGKPQPIAPVSEGHHHHHH” here?
**A.** not soluble

**Q.** For “MELAAGSFSEEQFWEACAELQQPALAGADWQLLVETSGISIYRLLDKKTGLYEYKVFGVLEDCSPTLLADIYMDSDYRKQWDQYVKELYEQECNGETVVYWEVKYPFPMSNRDYVYLRQRRDLDMEGRKIHVILARSTSMPQLGERSGVIRVKQYKQSLAIESDGKKGSKVFMYYFDNPGGQIPSWLINWAAKNGVPNFLKDMARACQNYLKKT”, which “soluble on expression in E. coli” value is on record?
**A.** soluble

**Q.** For “MSGCPFAGNSVGYTLKNVSMEDNEEDRAQTGVNRASKGGLIYGNYLQLEKILNAQELQSEVKGNKIHDEHLFIITHQAYELWFKQILWELDSVREIFQNGHVRDERNMLKVIARMHRVVVIFKLLVQQFSVLETMTALDFNDFREYLSPASGFQSLQFRLLENKIGVLQSLRVPYNRKHYRDNFGGDYNELLLKSEQEQTLLQLVEAWLERTPGLEPNGFNFWGKFEKNILKGLEEEFLRIQAKTDSEEKEEQMAEFRKQKEVLLCLFDEKRHDYLLSKGERRLSYRALQGALMIYFYREEPRFQVPFQLLTSLMDIDTLMTKWRYNHVCMVHRMLGTKAGTGGSSGYHYLRSTVSDRYKVFVDLFNLSTYLVPRHWVPKMNPIIHKFLYTAEYSDSSYFSSDESD”, which “soluble on expression in E. coli” value is on record?
**A.** soluble

**Q.** Which “soluble on expression in E. coli” value does the source give for “MPRFSNKTVIITGSSNGIGRTTAILFAQEGANVTITGRSSERLEETRQIILKSGVSEKQVNSVVADVTTEDGQDQIINSTLKQFGKIDVLVNNAGAAIPDAFGTTGTDQGIDIYHKTLKLNLQAVIEMTKKVKPHLVASKGEIVNVSSIVAGPQAQPDFLYYAIAKAALDQYTRSTAIDLAKFGIRVNSVSPGMVETGFTNAMGMPDQASQKFYNFMASHKECIPIGAAGKPEHIANIILFLADRNLSFYILGQSIVADGGTSLVMGTQAHDVMSIMSSH” here?
**A.** soluble
